{"source": "patent US20030175278A1", "about": "(published 2003)", "biological_target": "T1, PS2-COOH terminus Y2H bait (PS2 COOH-terminal 39 amino acids, K410-I448) (human)", "T1 construct": "also called PS2-COOH-terminal bait; not shown: the LexA fusion partner of the bait and any linker", "T1 sequence (chain, as listed by the source limits assumed)": "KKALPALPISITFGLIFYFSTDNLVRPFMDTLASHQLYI", "assay": "Y2H β-galactosidase liquid culture assay (ONPG)", "description": "The yeast two-hybrid (Y2H) procedure that utilizes the LexA/transactivation system was performed, as described previously (Stabler, et al. 1999). The PS2 COOH-terminal 39-amino acids (residues […]) (see FIG. 1a and FIG. b) were used as bait to screen a human fetal brain cDNA library. Out of 10⁷ primary yeast transformants, 50 clones were selected for further analysis based on growth in the absence of leucine and a substantial blue color change when grown on 5-bromo-4-chloro-3-indolyl-β-D-galactopyranoside (X-gal) plates. False positives were subsequently eliminated based on their interactions with negative-control baits, such as LexA alone, nuclear lamin B, and CENP-C centromere protein. Plasmid DNAs were isolated from clones that fulfilled the above requirements, and the DNA sequences of their inserts were determined and compared with the GenBank/EMBL/DDBJ databases using the BLAST search program. […] Interaction of ubiquilin proteins with various PS1 and PS2 baits were quantified in liquid culture assays by the enzymatic conversion of o-nitrophenyl-β-D-galactopyranoside (ONPG) to o-nitrophenol and D-galactose by β-galactosidase enzyme encoded by an Y2H reporter plasmid.\nInteraction between ubiquilin and the presenilins was quantified in Y2H β-galactosidase liquid culture assays. […]"}
{"binder": "ubiquilin-prey clone (FIG. 2 III, construct B without GST), Q378-S595 (other, not shown: large carriers, also called partial ubiquilin clone (encoding the COOH-terminal 218 residues)) QSLLQQITENPQLMQNMLSAPYMRSMMQSLSQNPDLAAQMMLNNPLFAGNPQLQEQMRQQLPTFLQQMQNPDTLSAMSNPRAMQALLQIQQGLQTLATEAPGLIPGFTPGLGALGSTGGSSGTNGSNATPSENTSPTAGTTEPGHQQFIQQMLQALAGVNPQLQNPEVRFQQQLEQLSAMGFLNREANLQALIATGGDINAAIERLLGSQHHSSISVS", "values": [{"measurement": "fold β-galactosidase activity compared with negative-control baits", "result": "> 55", "unit": "fold"}]}
{"binder": "near full-length ubiquilin-prey clone (FIG. 2 III, construct H without GST), M37-S595 (other, not shown: large carriers, also called near full-length clone (encoding residues 37-595); the longer ubiquilin clone) MKVTVKTPKEKEEFAVPENSSVQQFKEEISKRFKSHTDQLVLIFAGKILKDQDTLSQHGIHDGLTVHLVIKTQNRPQDHSAQQTNTAGTNVTTSSTPNSNSTSGSATSNPFGLGGLGGLAGLSSLGLNTTNFSELQSQMQRQLLSNPEMMVQIMENPFVQSMLSNPDLMRQLIMANPQMQQLIQRNPEISHMLNNPDIMRQTLELARNPAMMQEMMRNQDRALSNLESIPGGYNALRRMYTDIQEPMLSAAQEQFGGNPFASLVSNTSSGEGSQPSRTENRDPLPNPWAPQTSQSSSASSGTASTVGGTTGSTASGTSGQSTTAPNLVPGVGASMFNTPGMQSLLQQITENPQLMQNMLSAPYMRSMMQSLSQNPDLAAQMMLNNPLFAGNPQLQEQMRQQLPTFLQQMQNPDTLSAMSNPRAMQALLQIQQGLQTLATEAPGLIPGFTPGLGALGSTGGSSGTNGSNATPSENTSPTAGTTEPGHQQFIQQMLQALAGVNPQLQNPEVRFQQQLEQLSAMGFLNREANLQALIATGGDINAAIERLLGSQHHSSISVS", "values": [{"measurement": "fold β-galactosidase activity compared with negative-control baits", "result": "> 55", "unit": "fold"}]}
